The values below come from US20210300992A1 (Stanford University, published 2021).

The labels stand for the following.
B1: human leukemia inhibitory factor (LIF), soluble (ligand)
chain: not shown
notes: also called human LIF; soluble human LIF
B4: wild-type human LIFR displayed on the surface of yeast (receptor)
chain: QKKGAPHDLKCVTNNLQVWNCSWKAPSGTGRGTDYEVCIENRSRSCYQLEKTSIKIPALSHGDYEITINSLHDFGSSTSKFTLNEQNVSLIPDTPEILNLSADFSTSTLYLKWNDRGSVFPHRSNVIWEIKVLRKESMELVKLVTHNTTLNGKDTLHHWSWASDMPLECAIHFVEIRCYIDNLHFSGLEEWSDWSPVKNISWIPDSQTKVFPQDKVILVGSDITFCCVSQEKVLSALIGHTNCPLIHLDGENVAIKIRNISVSASSGTNVVFTTEDNIFGTVIFAGYPPDTPQQLNCETHDLKEIICSWNPGRVTALVGPRATSYTLVESFSGKYVRLKRAEAPTNESYQLLFQMLPNQEIYNFTLNAHNPLGRSQSTILVNITEKVYPHTPTSFKVKDINSTAVKLSWHLPGNFAKINFLCEIEIKKSNSVQEQRNVTIKGVENSSYLVALDKLNPYTLYTFRIRCSTETFWKWSKWSNKKQHLTTEAS
notes: also called LIFR wild-type (WT); wild-type LIFR
B5: LIFR CBMI-Ig-like-CBMII wild-type Fc fusion homodimer (Fc fusion)
chain: QKKGAPHDLKCVTNNLQVWNCSWKAPSGTGRGTDYEVCIENRSRSCYQLEKTSIKIPALSHGDYEITINSLHDFGSSTSKFTLNEQNVSLIPDTPEILNLSADFSTSTLYLKWNDRGSVFPHRSNVIWEIKVLRKESMELVKLVTHNTTLNGKDTLHHWSWASDMPLECAIHFVEIRCYIDNLHFSGLEEWSDWSPVKNISWIPDSQTKVFPQDKVILVGSDITFCCVSQEKVLSALIGHTNCPLIHLDGENVAIKIRNISVSASSGTNVVFTTEDNIFGTVIFAGYPPDTPQQLNCETHDLKEIICSWNPGRVTALVGPRATSYTLVESFSGKYVRLKRAEAPTNESYQLLFQMLPNQEIYNFTLNAHNPLGRSQSTILVNITEKVYPHTPTSFKVKDINSTAVKLSWHLPGNFAKINFLCEIEIKKSNSVQEQRNVTIKGVENSSYLVALDKLNPYTLYTFRIRCSTETFWKWSKWSNKKQHLTTEAS
notes: Homodimer through the Fc; The engineered counterparts use a 3x GS linker and a human IgG1 Fc; also called LIFR-WT-Fc; LIFR WT Fc; not shown: linker and Fc domain

In assay [1] the target is B5. Put plainly: KinExA with soluble human LIF; KD calculated by the KinExA software. As for the experimental part: (§1) Binding of the purified LIF inhibitors to soluble LIF was tested using KinExA. Shown in FIG. 10 are binding results for: (1) a homodimer having a WT LIFR CBMI-Ig-like-CBMII Fc fusion as each monomer; (2) a homodimer having LIFR […] Fc as each monomer;
Assay [2] addresses B1. Put plainly: yeast surface display, flow cytometry; Score column of the table of sorted gp130 CBM variants (the filing gives 100 pM and 1 nM human LIF for the gp130 binding scores).
Assay [3] deals with B1. As to the kind of experiment: yeast surface display, flow cytometry; soluble human LIF titrated (0.01 to 1000 nM), detected with a fluorescent antibody. Here is the method:
(§2) Binding to human LIF was measured via fluorescent antibody detection using flow cytometry.
Results for gp130 wild-type (WT) (circles), the “8M” variant (E4K-K5R-N14D-K45E-F46L-K83R-Y95D-N100S) (squares), and the ELDME variant (mutations in FIG. 4, panel A) (triangles) are shown.

The target in assay [4] is B4. As to the kind of experiment: yeast-displayed receptor, no LIF added, anti-Fc detection by flow cytometry. On the technique in general: Flow cytometry measures light scatter and fluorescence of single cells or particles in a stream.
The target in assay [5] is T1, wild-type human gp130 CBM domain displayed on the surface of yeast (human, UniProt P40189 124-324).
T1 construct: also called gp130 wild-type (WT); wild-type gp130
T1 chain: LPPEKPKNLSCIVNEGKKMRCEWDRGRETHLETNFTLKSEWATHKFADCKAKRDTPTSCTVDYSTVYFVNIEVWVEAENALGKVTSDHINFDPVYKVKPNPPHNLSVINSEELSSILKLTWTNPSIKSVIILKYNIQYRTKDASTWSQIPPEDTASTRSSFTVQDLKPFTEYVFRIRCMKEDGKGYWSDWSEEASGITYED
Described as above.

The target of assay [6] is B1. Put plainly: KinExA with soluble human LIF; KD calculated by the KinExA software. The unit is written as printed; the curve lies beside that of LIFR VPRVVAID Fc (Kd in pM). Here is the method:
as §1
and (3) a homodimer having LIFR-gp130 V-E fusion Fc as each monomer. KD values calculated from KinExA software and fitted curves are shown.

In assay [7] the target is B1. Put plainly: KinExA with soluble human LIF; inhibitor titrated. As for the experimental part:
as §1
(In general: In KinExA the mixture passes briefly over coated beads that capture the unbound partner.)

For assay [8], the target named is B1. As to the kind of experiment: yeast surface display, flow cytometry; score from summed fluorescence at 10 pM and 100 pM human LIF, normalized to wild-type and to expression.
Assay [9] concerns the target B1. As to the kind of experiment: yeast surface display, flow cytometry; soluble human LIF titrated (0.001 to 100 nM), detected with a fluorescent antibody. Here is the method: as §2
Results for LIFR wild-type (WT) (circles), the “PDD” variant (L218P-N42D-N277D) (squares), and the […] variant (mutations in FIG. 4, panel A) (triangles) are shown.

In general, Kd refers to the concentration at which binding is half-saturated. On to B1, for which, in assay [1], the Kd was 1.09 nM.

B2: 8M (receptor)
yeast-displayed receptor fragment: LPPKRPKNLSCIVDEGKKMRCEWDRGRETHLETNFTLKSEWATHELADCKAKRDTPTSCTVDYSTVYFVNIEVWVEAENALGRVTSDHINFDPVDKVKPSPPHNLSVINSEELSSILKLTWTNPSIKSVIILKYNIQYRTKDASTWSQIPPEDTASTRSSFTVQDLKPFTEYVFRIRCMKEDGKGYWSDWSEEASGITYED
notes: 8 mutations, all marked; also called 8M (Rnd 1); E4K-K5R-N14D-K45E-F46L-K83R-Y95D-N100S
The term EC50 (read off the curve) denotes the concentration that produces a half-maximal response. Regarding B2, the “Score (binding score)” value in [2] was found to be 16. Also, in assay [3], the “EC50 (read off the curve)” value was about 10 nM.

B3: LIFR CBMI-Ig-like-CBMII (VPRVVAID)-gp130 CBM (ELDME) Fc fusion homodimer (Fc fusion)
chain: QKKGAPHDLKCVTNNLQVWNCSWKAPSGTGRGTDYEVCIENRSRSCYQLEKTSIKIPALSHGDYEITINSLHDFGSSTSKFTLNEQNVSLIPDTPEILNLSADFSTSTLYLKWNDRGSVFPHRSNVIWEIKVLRKESMELVKLVTHNTTLNGKDTLHHWSWASDMPLECAIHFVEIRCYIDNLHFSGLEEWSDWSPVKNISWIPDSQTKVFPQDKVVPVGSDITFCCVSQEKVLSALIGRTNCPLIHLDGENVAIKVRNVSASASSGTNVVFITEDDIFGTVIFAGYPPDTPQQLNCETHDLKEIICSWNPGRVTALVGPRATSYTLVESFSGKYVRLKRAEAPTNESYQLLFQMLPNQEIYNFTLNAHNPLGRSQSTILVNITEKVYPHTPTSFKVKDINSTAVKLSWHLPGNFAKINFLCEIEIKKSNSVQEQRNVTIKGVENSSYLVALDKLNPYTLYTFRIRCSTETFWKWSKWSNKKQHLTTEASGGGGSGGGGSGGGGSGGGGSGGGGSLPPEKPKNLSCIVNEGKKMRCEWDRGRETHLETNFTLKSEWATHELADCKAKRDTPTSCTVDYSTVYFVNIEVWVEAENALGKVTSDHINFDPVDKVKPNPPHNLSVINSEELSSILKLTWTNPSIKSVMILKYNIQYRTKDASTWSQIPPEDTASTRSSFTVQDLKPFTEYVFRIRCMKEDGEGYWSDWSEEASGITYEDGSGSGSDKTHTCPPCPAPELLGGPSVFLFPPKPKDTLMISRTPEVTCVVVDVSHEDPQVKFNWYVDGVQVHNAKTKPREQQYNSTYRVVSVLTVLHQNWLDGKEYKCKVSNKALPAPIEKTISKAKGQPREPQVYTLPPSREEMTKNQVSLTCLVKGFYPSDIAVEWESNGQPENNYKTTPPVLDSDGSFFLYSKLTVDKSRWQQGNVFSCSVMHEALHNHYTQKSLSLSPGK
notes: also called LIFR-gp130 Fusion-Fc; LIFR-gp130 V-E fusion Fc
Turning to B3, the binding result in assay [4] and in assay [5] was “no binding” each time. Also, in assay [6], the dissociation constant Kd is 30.8 nM. Moreover, the “EC50 (read off the curve)” value in assay [7] was about 0.06 nM.
As for B4, the “Score (normalized binding score)” value in assay [8] came to 1.32. Moreover, the “EC50 (read off the curve)” value in assay [9] was about 1 nM.
As to B5, the “EC50 (read off the curve)” value in assay [7] was about 1 nM.

B6: LIFR CBMI-Ig-like-CBMII (VPRVVAID)-gp130 CBM (ELDME) heterodimeric Fc fusion (Fc fusion)
chain 1: QKKGAPHDLKCVTNNLQVWNCSWKAPSGTGRGTDYEVCIENRSRSCYQLEKTSIKIPALSHGDYEITINSLHDFGSSTSKFTLNEQNVSLIPDTPEILNLSADFSTSTLYLKWNDRGSVFPHRSNVIWEIKVLRKESMELVKLVTHNTTLNGKDTLHHWSWASDMPLECAIHFVEIRCYIDNLHFSGLEEWSDWSPVKNISWIPDSQTKVFPQDKVVPVGSDITFCCVSQEKVLSALIGRTDCPLIHLDGENVAIKVRNVSASASSGTNVVFITEDDIFGTVIFAGYPPDTPQQLNCETHDLKEIICSWNPGRVTALVGPRATSYTLVESFSGKYVRLKRAEAPTNESYQLLFQMLPNQEIYNFTLNAHNPLGRSQSTILVNITEKVYPHTPTSFKVKDINSTAVKLSWHLPGNFAKINFLCEIEIKKSNSVQEQRNVTIKGVENSSYLVALDKLNPYTLYTFRIRCSTETFWKWSKWSNKKQHLTTEASGSGSGSDKTHTCPPCPAPELLGGPSVFLFPPKPKDTLMISRTPEVTCVVVDVSHEDPQVKFNWYVDGVQVHNAKTKPREQQYNSTYRVVSVLTVLHQNWLDGKEYKCKVSNKALPAPIEKTISKAKGQPREPQVYTLPPSREEMTKNQVSLWCLVKGFYPSDIAVEWESNGQPENNYKTTPPVLDSDGSFFLYSKLTVDKSRWQQGNVFSCSVMHEALHNHYTQKSLSLSPGK
chain 2: LPPEKPKNLSCIVNEGKKMRCEWDRGRETHLETNFTLKSEWATHELADCKAKRDTPTSCTVDYSTVYFVNIEVWVEAENALGKVTSDHINFDPVDKVKPNPPHNLSVINSEELSSILKLTWTNPSIKSVMILKYNIQYRTKDASTWSQIPPEDTASTRSSFTVQDLKPFTEYVFRIRCMKEDGEGYWSDWSEEASGITYEDGSGSGSDKTHTCPPCPAPELLGGPSVFLFPPKPKDTLMISRTPEVTCVVVDVSHEDPQVKFNWYVDGVQVHNAKTKPREQQYNSTYRVVSVLTVLHQNWLDGKEYKCKVSNKALPAPIEKTISKAKGQPREPQVYTLPPSREEMTKNQVSLSCAVKGFYPSDIAVEWESNGQPENNYKTTPPVLDSDGSFFLVSKLTVDKSRWQQGNVFSCSVMHEALHNHYTQKSLSLSPGK
notes: also called LIFR-gp130 heterodimeric Fc; LIFR-gp130 Heterodimeric Fc (Eng.)
Regarding B6, the binding result in [4] and in [5] was “no binding” throughout.
